The record followed here is patent US20240018256A1 (JUNO THERAPEUTICS, published 2024).

Assay [1] has as its target T1, human CD19 (human, UniProt P15391 20-556).
T1 sequence: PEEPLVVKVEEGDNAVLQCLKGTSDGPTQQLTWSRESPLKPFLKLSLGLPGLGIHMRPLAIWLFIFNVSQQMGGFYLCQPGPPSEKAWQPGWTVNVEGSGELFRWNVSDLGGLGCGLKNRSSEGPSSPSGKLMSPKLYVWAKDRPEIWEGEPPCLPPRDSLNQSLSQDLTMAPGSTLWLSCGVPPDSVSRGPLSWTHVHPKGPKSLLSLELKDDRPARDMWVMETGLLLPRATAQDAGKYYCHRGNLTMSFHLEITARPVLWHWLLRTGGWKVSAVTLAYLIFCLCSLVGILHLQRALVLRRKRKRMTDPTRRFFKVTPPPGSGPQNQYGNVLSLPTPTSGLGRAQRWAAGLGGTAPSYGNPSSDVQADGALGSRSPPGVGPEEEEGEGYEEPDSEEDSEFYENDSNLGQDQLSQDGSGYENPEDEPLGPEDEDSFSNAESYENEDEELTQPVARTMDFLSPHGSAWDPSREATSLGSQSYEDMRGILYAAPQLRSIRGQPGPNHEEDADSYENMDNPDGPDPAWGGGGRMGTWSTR
Kind of assay: flow cytometry competition for binding with FMC63 (n = 3). Background: A flow cytometer gives signals particle by particle.

The target of assay [2] is T1, human CD19. Put plainly: flow cytometry on CD19-expressing cells (n = 2).

B1: Clone 241 scFv (scFv)
scFv: EVQLVQSGGGLVQPGRSLRLSCAASGFTFDDYAMHWVRQAPGKGLEWVSGISWNSGSIGYADSVKGRFTISRDNAKNSLYLQMNSLRAEDTAVYYCARDQGYHYYDSAEHAFDIWGQGTVVTVSSGGGGSGGGGSGGGGSAIRMTQSPSSLSASVGDRVTVTCQASQDISNYLNWYQQKPGRAPKLLIYDASNVKAGVPSRFSGGGSGTDFTLTISSLQPEDFATYYCQQSYSTPQAYTFGQGTKLDIK
notes: Human scFv
The term IC50 denotes the midpoint of a concentration-inhibition curve. Read a low IC50 as greater potency in that assay. A word on the EC50: it is the concentration giving half of the maximal effect. A high value points to a need for much substance. The molecule B1 had an IC50 with human CD19 [1] of 14.6 nM. The molecule also registered an EC50 with human CD19 [2] of 5.2 nM.
